Data reported in US12377130B2, “Pharmaceutical composition comprising CCN5 as active ingredient, for preventing or treating retinal diseases” (OLIVES BIOTHERAPEUTICS INC., priority 2018, dated 2025).

Key:
Type in all cases: cell-based, human
ARPE-19 cells [1] = assay: Anti-VEGF drug-induced fibrotic deformation of ARPE-19 cells, simultaneous treatment with CCN5 protein; settings: for expression of CCN5 on treatment with anti-VEGF drug / expression of CCN2 on treatment with anti-VEGF drug: bevacizumab 0.25 mg/ml, ranibizumab 0.125 mg/ml, aflibercept 0.5 mg/ml
ARPE-19 cells [2] = assay: Bevacizumab-induced fibrotic deformation of ARPE-19 cells and prevention by AdCCN5; settings: bevacizumab 0.25 mg/ml
Method: Recombinant TGF-β2 was purchased from PeproTech Korea (Korea). ARPE-19 cells were treated with the recombinant TGF-β2 at 10 ng/ml. Recombinant EGF and FGF-2 were purchased from Invitrogen (USA). ARPE-19 cells were treated with 1 mM of EGTA, 10 ng/ml of EGF, and 20 ng/ml of FGF-2.
Use of an anti-VEGF drug that inhibits neovascularization is a widely used method for treating wet age-related macular degeneration. However, this method has a side effect of causing morphological and functional changes in RPE cells. […] The specific experimental process is shown in Example 2, and this experimental process is schematically illustrated in FIG. 11a. The experimental results are illustrated in FIGS. 11b to 11d.

ARPE-19 cells [3] = assay: Prevention of TGF-β-induced fibrotic deformation of ARPE-19 cells (microscopy, Western blotting, qPCR, immunofluorescence); settings: FIG. 3
Method: A retinal pigment epithelial cell line (ARPE-19; ATCC, USA) was cultured in a 5% CO2 incubator at 37° C. using Dulbecco's modified Eagle's medium and Ham's F12 Nutrient Mixture medium (DMEM/F12; Welgene, Korea), containing 1% antibiotics (Gibco, USA) and 10% fetal bovine serum (FBS; HyClone, USA). The medium was replaced with fresh medium every other day. When the cells were cultured to a certain extent in a culture plate, these cells were subcultured using 0.25% trypsin/0.02% EDTA (Gibco, USA). […]
Cells that had been grown by being seeded in a 12-well culture plate, each well containing a coverslip, were fixed with 4% formaldehyde and treated with 0.2% Triton X-100 for 10 minutes. […] Observation was performed under a fluorescence microscope.
RNA was extracted using TRIZOL™ (Invitrogen, USA) reagent. cDNA was synthesized using a reverse transcription kit (Promega, USA), and real-time polymerase chain reaction was performed using SYBR® green (TAKARA, Japan). The level of RNA was analyzed by analyzing the amplification reaction curve, and this analysis was performed in triplicate or quadruplicate. The relative expression level of genes was quantified by normalization to 18s rRNA. […]

ARPE-19 cells [4] = assay: Restoration of already formed TGF-β-induced fibrotic deformation of ARPE-19 cells; settings: then agent (restoration); for expression of mesenchymal (α-SMA, vimentin, fibronectin) and epithelial (ZO-1, occludin) marker proteins (Western blotting): TGF-β 2 days, FIGS. 6c, 8b, 12b, 13b
Method: The cultured cells were divided into the following two groups and subjected to drug treatment: one group in which induction of differentiation of retinal pigment epithelial cells into mesenchymal cells was suppressed; and the other group in which retinal pigment epithelial cells that had been induced to differentiate into mesenchymal cells were caused to return to normal retinal pigment epithelial cells. The ARPE-19 cells were grown in serum-free medium for 24 hours. Then, the cells were treated with AdCCN5 at 50 multiplicity of infection (MOI) followed by 10 ng/ml of TGF-β2 (PeproTech Korea, Korea), or treated with TGF-β2 followed by AdCCN5.
For in vitro experiments, the cultured ARPE-19 cells were washed with phosphate buffered saline (PBS), and suspended with a mixed solution of cold RIPA buffer (1% NP-40, 50 mM Tris-HCl [pH 7.4], 150 mM NaCl, and 10 mM NaF) and a protease inhibitor cocktail (Roche, Germany). The cell suspension was subjected to treatment with an ultrasonic generator for 5 minutes at an amplitude of 5% with a cycle of 2 seconds on/1 second off.
Cells that had been grown by being seeded in a 12-well culture plate, each well containing a coverslip, were fixed with 4% formaldehyde and treated with 0.2% Triton X-100 for 10 minutes. The cells were blocked with a diluted solution of 5% bovine serum albumin in PBS, and incubated with anti-ZO-1 and anti-α-SMA antibodies overnight at 4° C. For secondary antibodies, the cells were incubated for 1 hour at room temperature with FITC- or Alexa Fluor 594-conjugated secondary antibodies, TEXAS RED®-conjugated phalloidin (Invitrogen, USA) for f-actin staining, and Hoechst 33342 (Invitrogen, USA) for nuclear staining. The results were observed using an epifluorescence microscope (Zeiss, Germany). For retinal flat-mount experiments, the eyes were enucleated from the mice, and each eye was fixed in 4% formaldehyde for 24 hours. […] Observation was performed under a fluorescence microscope. […]

ARPE-19 cells [5] = assay: Induction of fibrotic deformation of ARPE-19 cells by TGF-β
Method: The mature ARPE-19 cells form a cobblestone-like monolayer and express marker proteins specific for epithelial cells. The cultured ARPE-19 cells were treated with TGF-β at 5 ng/ml or 10 ng/ml for 2 days (FIG. 1a). The results are illustrated in FIGS. 1b to 1d.

[6] = TGF-β 5 or 10 ng/ml, 2 days, FIG. 1c

bevacizumab: anti-VEGF monoclonal antibody drug sold under the brand name Avastin
expression of CCN5 on treatment with anti-VEGF drug (ARPE-19 cells [1]; FIG. 14b): decreased expression of CCN5
morphology of ARPE-19 cells on treatment with bevacizumab (ARPE-19 cells [2]; FIG. 11b): the morphology of the cells changed
expression of CCN5 on treatment with bevacizumab (Western blotting) (ARPE-19 cells [2]; FIG. 11c): the expression of CCN5 is decreased by bevacizumab

Cc1cccc(-c2nn(C(=S)Nc3ccccc3)cc2-c2ccnc3ccccc23)n1 [A83-01, reference compound]
TGF-β-induced fibrotic deformation (Western blotting), CCN5 compared with A83-01 (ARPE-19 cells [3]): inhibited TGF-β-induced fibrotic deformation of ARPE-19 cells
expression of mesenchymal (α-SMA, vimentin, fibronectin) and epithelial (ZO-1, occludin) marker proteins (Western blotting) (ARPE-19 cells [4]): failed to normalize abnormal changes in expression of mesenchymal marker proteins (α-SMA, vimentin, and fibronectin) and epithelial marker proteins (ZO-1 and occludin)

aflibercept: anti-VEGF drug sold under the brand name EYLEA
expression of CCN2 on treatment with anti-VEGF drug (ARPE-19 cells [1]; FIG. 14b): increased expression of CCN2
expression of CCN5 on treatment with anti-VEGF drug (ARPE-19 cells [1]; FIG. 14b): decreased expression of CCN5

ranibizumab: anti-VEGF monoclonal antibody fragment (Fab) sold under the brand name LUCENTIS
expression of CCN2 on treatment with anti-VEGF drug (ARPE-19 cells [1]; FIG. 14b): increased expression of CCN2
expression of CCN5 on treatment with anti-VEGF drug (ARPE-19 cells [1]; FIG. 14b): decreased expression of CCN5

B1: CCN5 protein: purified human-derived CCN5 protein, extracellular matrix-related protein of the CCN family, also called WISP-2 (protein)
chain: QLCPTPCTCPWPPPRCPLGVPLVLDGCGCCRVCARRLGEPCDQLHVCDASQGLVCQPGAGPGGRGALCLLAEDDSSCEVNGRLYREGETFQPHCSIRCRCEDGGFTCVPLCSEDVRLPSWDCPHPRRVEVLGKCCPEWVCGQGGGLGTQPLPAQGPQFSGLVSSLPPGVPCPEWSTAWGPCSTTCGLGMATRVSNQNRFCRLETQRRLCLSRPCPPSRGRSPQNSAF
modifications: CCN5(except signal peptide, human)
TGF-β-induced fibrotic deformation (Western blotting), CCN5 compared with A83-01 (ARPE-19 cells [3]): inhibited TGF-β-induced fibrotic deformation of ARPE-19 cells to the same level as A83-01
expression of mesenchymal (α-SMA, vimentin, fibronectin) and epithelial (ZO-1, occludin) marker proteins (Western blotting) (ARPE-19 cells [4]): inhibited increased expression of mesenchymal marker proteins (α-SMA, vimentin, and fibronectin) and restored decreased expression of epithelial marker proteins (ZO-1 and occludin) to a normal level
tight junction (immunofluorescence staining) (ARPE-19 cells [4]; TGF-β, FIGS. 6d, 12c, 13c): restore the tight junction, disrupted by TGF-β, to normal
expression of mesenchymal and epithelial marker proteins (Western blotting) (ARPE-19 cells [1]; simultaneous treatment with anti-VEGF drugs): inhibited increased expression of mesenchymal marker proteins (α-SMA, vimentin, and fibronectin) and decreased expression of epithelial marker proteins (ZO-1 and occludin)
anti-VEGF drug-induced decrease of CCN5 and increase of CCN2 expression, effect of CCN5 protein (ARPE-19 cells [1]; simultaneous treatment with anti-VEGF drugs, FIG. 14b): this phenomenon was inhibited by CCN5 protein
tight junction, expression of α-SMA and formation of f-actin (immunofluorescence staining) (ARPE-19 cells [1]; simultaneous treatment with anti-VEGF drugs, FIG. 14c): inhibited disruption of tight junction, increased expression of α-SMA, and formation of f-actin

B2: TGF-β: Recombinant TGF-β2 (PeproTech), trigger for fibrotic deformation of RPE cells (protein, UniProt P61812 303-414, looked up)
Transforming growth factor …: ALDAAYCFRNVQDNCCLRPLYIDFKRDLGWKWIHEPKGYNANFCAGACPYLWSSDTQHSRVLSLYNTINPEASASPCCVSQDLEPLTILYYIGKTPKIEQLSNMIVKSCKCS
α-SMA, f-actin and tight junction after treatment with TGF-β (immunofluorescence staining) (ARPE-19 cells [5]; FIG. 1d): the expression of α-SMA and f-actin is increased and the formation of tight junction is inhibited
morphology of ARPE-19 cells after treatment with TGF-β (ARPE-19 cells [5]; TGF-β 5 or 10 ng/ml, 2 days, FIG. 1b): acquired a fibroblastic morphology
expression level of CCN5 protein after treatment with TGF-β (ARPE-19 cells [5]; [6]): significantly decreased the expression level of human-derived CCN5 protein
expression of mesenchymal and epithelial marker proteins after treatment with TGF-β (ARPE-19 cells [5]; [6]): the expression of the mesenchymal marker proteins, α-SMA, vimentin, fibronectin, and type I collagen, was increased, whereas the expression of the epithelial marker proteins, ZO-1 and occludin, was significantly decreased
